This data set can be described thus: soluble on expression in E. coli; label from the status in PepcDB or PDB records.
Take “MAIPGNMWIYDDGGALIKGGCDVADREFSIEFKGFHHNLSIPTDHATGKPTGTRQHSPMIIVKEFDYSSPYLYKAVATGQNLKSAEIKWYKISDAGQEVEYFNMLLEGVRIVSISPTMASPEDKNNNHLESVELRYEKITWKHCDGNIIFTDAWNERQTA”: the “soluble on expression in E. coli” value is on record as “not soluble”.
On to “IKNFSYGVKFVLSDAQQKILKYNNPDKSLSNPYYEGQKLGEIWGYKTIGIAQSDEEMNQHLANAKQPMGQKWAAGDIMYADLDNSGSVDQGNYKVGDSGDWQIIGNNTPRFNYGITIDAAWKGLDFRAFVQGIGKRDYWLNGPYFWGFSGGGEWASAGFKEHWDFWRPEGDPLGANTNSYFARVIRGTSKNQQRQTRYLQDASYWRLKNIQIGYTLPKVWTKKAGMESVRVYVSGDNLLTVSDITGVFDPENLGTQWTDPGKVYPLQKVIAIGLTVNF”, for which the “soluble on expression in E. coli” value was “not soluble”.
With “MGSDKIHHHHHHMDYLTTNKIAWDARTRVHLTSDFYDVEGFLSGKISLTEIELNELAVAGKSLLHLQCHFGLDTLSWARMGAKVTGVDLSEVAIAEACKLAQQTQLSAEFICSDVYSVVGKVEPQDIVFTSYGAIVWLPDLTLWAQTIAACLKPGGQFYMAEFHPAQQLFDGYSYFNRGEPDIEQEGTYTENASDDQQTLMCWSHSLSEVINALLQAGLELVFFHEFAFSPYNCFEGLEAQADGRYVLIHQGQQVPLVYSISARKPV”, the “soluble on expression in E. coli” value is on record as “not soluble”.
Next, “MKLERVLPFARSLLQTAVKEGDYAVDATLGNGHDTCFLAEIVGDNGKVFGFDIQKEAIESSTTRLKEKELFERTVLVHDSHDTLLSILPEDAKGKVTGAIFNLGYLPGGDKHIVTKPNSTISAIEQLLEVMAPEGIIVLVIYHGHPEGQVERDAVLKFAEELDQKQAHVLRYGFINQQNNPPFIVAIEKRLEHHHHHH”: “soluble”; “SAGVRGLRLVERYTQDTANIINNVIKLDKQKVEAFSIQYKDPKNFRVQVKINAKGNYKKDTVKTYLSQVGLSDGDLNDTGTLEAEIIYTYMPPAASFFSASKFDKLTRAINFNTNLRIQIIGKDSVMTKLLQQSSFVKQLADQKFQDQSINLLPYVLYSI”: “not soluble”.
In the case of “MGSDKIHHHHHHDFEELNTNPFEMTDEMGIRDGVAVGGAVMAMQRAVITVGTQADDTEAINQYQVAYNLSADSWSGFFGQNNNWYSGSNNTTYYLQDNWVAATYTNSYTTLLSSWKKIKQESEKNETPEIFALAQILKISAWHKTLESFGPIPYTHAGEPALVIPFDSEQVAFNAMFADLTAAIEALTVRAEQGATIVADYDAVYAGDTRKWVKYANSLMLRLAMRISYADETTAQKYARQALNHPFGVMTSKSDEAQMSTGAGMVFRNNIDWLANQYNECRMGSSMFSYLLGYQDPRLSAYFEASPSAYAVAAFDGKNYQAVPPGNANQQNTIYTDFSKPNITSNTPTYWMRASEVYFLRAEAALRWGSEFGDAEALYEQGVATSFDENGISSSVDDYLAFGLTPIAHNMRASYYSYNAAAPTTATPAFSGGTEQKLEKIMIQKWIALYPNGHEAWTEWRRTGYPKLNQVQTNRGQGVTREGGIRRMVYPVSFYQSAEDRANYEEALKLLGGLDKDKATTQLWWDCKNKIY” it was “not soluble”; in that of “VLSHCLETGFLTAYLALLVNFKPDVALKCGLYHDIGKADDENGKKNHTVTGAKIGDEFYFENDVKYTIANHHNKNVDNVYCRLTQIGDKLSAG”, “not soluble”.
As to “MRPLSLKGHERALTRVRFNREGDLTFSCAKDKKPCVWYTENGERIGSYDGHNGAVWDIDVSWDTTKCVTASGDLTVKIWDAELGNCLYTINHQTPMKSCGFSYSGNLVCFTTQKMTKNLSTFQVRDLRDSSQMVEGGESFFYSQFDVNATTALFTQMDDLVTIGFESGLLQQYDLRNPDTPIHTNESVHRYSVQDLQLSPRGDFLISASRDKTAALLDVNDLKKLKQYKSERPVNSACISPNRDHICLGGGEDAMQVTQTSVSAGHFEAKIYHMVFEEEFARFKGHFGPINTMAWHPSGTIIATGGEDGYIRIQEFDEDYLGFTYDF”, the “soluble on expression in E. coli” value is reported as “not soluble”.
In the case of “MKIKRLSLWHVPLTSHTAYYMAEGKTCDTVETAVLCIETDTGLTGWGEVCPIPHYLPAYARGVGPALSELAPVILSADPIGPEALMAKADAYLPDHRYAKSALDIALWDLTGQAAGLPLHALLGGQRQADLPLYHSITCIEPDEMARIAIEAQAQGMTQFQAKLGASGDWQTDVERLIKVREAVGSGPILYGDWNCGSTSLDATRTGRAVAHLDIMLEQPCATIEDCARVHSATGLPMKLDELVHDTASLLKAHQLGLMDVAALKLSKFGGLSATRRARDLCLHLGAKMCVEDTWGSDITTAAVLHLGAATDPARVLNVCDLSGYVSPRLAQDAPTRAQGRIAPPQAAGLGIAVDKTALGQPELILD” it was “soluble”; in that of “MSLQRPVMLLSDDDSEVRRLVYDSLDRLGCEMEEPDNGEQALAAFRRIQPEIVLLDLAMTQADAFELCASLHGARGGERVSILAVAGRGDLEGVRRAIDAGATDFLIHPVDVEMLGLRLSCGRRSAQTRERLSRNEERNRGLIKGIPHLVLQISKEGTVLDFEAPRDFDLRQFPDGLRGRRIQDVFFADAPYVIVRCIERVIETAESQVLEHNVRIGNDIHVYETRILPNAEGEPTVVMRDVTERRKMEKEGHHHHHH”, “soluble”.
On to “MRFLIPIIFTTLPLCLQAQEDPCASAPSEAAKIMCKQIHRWDDGARAASKKKKIALPPGMAKGMAAEFAPIASNIYQCMDLPCLCSYLRGTASGNGCTLPNGRPLQKSVRKEYRTLTDDERNRLHAAFRALKNNGEYERIGRIHSQMSAAGGAHSGPAFLPWHREFVKRVEFALRQVDPTVNLPYWDSTLDSRLPRPADTIMFSDYLMGSTGLVNDGPFTNWRTLAGRAQILRAVGAQGAPLSQNDIDFVMRQTQIDQVLSFTAPQQGCPYRTDFNCLEYTHGNVHIFVGGDMFDTATSSNDPSFFLHHAFIDFVWEEWRLARQSRADREIAFPPDNQLCASAQHFGASPMQPFSPMRNIDGLSNKYTDNLYSYAPRPTCQAGGDCGSKFLFCDTSTGAARCVSRIRPGSQCGQFRVNPCFSGICQNGVCVLSSTAPRPTPAPTTPTPQNPVQSQESCFNENQCCASWAASGECSRNTAYMNEWCKASCGVCKPKYRLADDCTDRHTQCSSWSRSGECTKNQLWMTENCRKSCNKCGRSRAQECGGGGTTVTTTTPAPAQQCDNSDGCFNENVCCAVWGLMGECRKNTRYMACNCRVSCGHCYPEDYNYGSCVDYHRSCAGWARVGECQKNPWMAENCRSSCNSCYTQSELRRMCGTTAGSVAPVAQVRQTNPSRQPPRGGWGRDDFGDNGGWGGNGGGGWGNNDPWGGSRWGGGRGGWGGGGWGGGGWGKRSIRAANASISMPSFDPDLL”, for which the “soluble on expression in E. coli” value is on record as “not soluble”.
Next, “MQQINFYRQRVAINVLAKDIANAKAIYEAAEGHAVIGVLSAQFATVEEGVPEVKRWMAEVPSISVGLGAGDPAQYYKAAMIAAHTHPAHVNQTFTGSGFAAGALAATGGEQTHINALVSPTGTPGEVVISTGVSSSQGTPARVSCEAAVRMMQDMGAHAAKFFPMGGEKSLPELYALATTAARHGMTLIEPTGGISLDNFGIILQTCLEAGVPRVMPHVYSSIIDPQTGNTRPEDIIRLMEIVKALV”: “not soluble”; “MSLTLTLKETLLASPGVLFLDDITIEKVESEKNLMILLPGLEYLVTRDLLRTKFPEYDFTGPENVRITVEGYSSLKNAVFEEIGKKAEAKDFEAFVVKTFGTLPEKFEPQTIRVTKISKNLFSVFLRFPDTYVTLNMLLRKERNVVVLKRNINVGDVIKEEDVRLEKRNVFEIYGEPFFDVSEVVGKISRRYLKEGTVLTADMVKDPPDVVKGQVVPAYVDMGSIKVTTFVEVLENGYLGETVRAMNVESRKYVFGRVERGPVLRILEVVEGHHHHHH”: “soluble”; “MGSDKIHHHHHHMMPAKWDEVRPLLDRFSRDLPTNATVWFMMPDGSYYATAKGGFTDQNLKDCTCFPKLIGGKEVLGELVISRSTGQRSIVVAAPVVADGKVVAAVGVSVDAVKLIEVVESRMTLPENAYIYALDAKTKVTLHRYQARTFKTVFEIGNESLGDTFKKVMHREQGVFNYSLEGKKMNSIFRKSPVHGWYFFIAQQCK”: “not soluble”.
Next, “MGSDKIHHHHHHMGRMKNTFPFVITISRQLGAGGAYIGQQLAKKLSIFYADREIIGQAARKLSVMEEELEPRDEKSLSLWQFLIQSCACTPETSYIPPQITVPSDRELFKTESEIITRIAQEHSTVIIGRCGSYILREHPNHVSMFLHGDLSFRKSRIQKIYHVSENVAEKMIVQSDEERSQYHYKFTGKDWADARQYGLSVNTGRTGVDKTVDCILTYLELIKVRDCIP”: “not soluble”; “GAMDPMIIRGIRGARINNEIFNLGLKFQILNADVVATKKHVLHAINQAKTKKPIAKSFWMEILVRASGQRQIHEAIKIIGAKDGNVCLICEDEETFRKIYELIGGEIDDSVLEINEDKERLIREIFKIRGFGNVVERVLEKIALIELKKE”: “soluble”.
For the sequence “GMEAKLSSIEIPVGQDELSGTLLTPTGMPGVLFVHGWGGSQHHSLVRAREAVGLGCICMTFDLRGHEGYASMRQSVTRAQNLDDIKAAYDQLASLPYVDAHSIAVVGLSYGGYLSALLTRERPVEWLALRSPALYKDAHWDQPKVSLNADPDLMDYRRRALAPGDNLALAACAQYKGDVLLVEAENDVIVPHPVMRNYADAFTNARSLTSRVIAGADHALSVKEHQQEYTRALIDWLTEMVVGRRIALAKEVVAARKQLLKEQQGDAVSLPGQGSREFRGDIRAVEKTSA”, the “soluble on expression in E. coli” value was “soluble”.
Regarding “MKIIGKIGKGKVEVNEKTKFSILLNNVAKKADIAEGKRAVEDIIRVIYRHQPISTKKIAQKTRLPLPIVAKVRTILEREKILKRTERGAELTDLGKEFAENFLKLKYKKSLTCKTCNGRGIVLDEFFEDILNKVRVWAKRRPLVDTTIDQSFATPETSTYRAALMYERGDLEGKRILFVGDDDLTSLPTALTNMAEEIAVVDIDERILKLIEKFSQKEGVKIKTIKHDLRNPLPQDLKERFDVISTDPPYTVDGLKLFLSRGIEALGKEGIAYLSYSHKPIDEWLSIQKAITNMGFVISELIPNFNYYEGSEIIANTTFIARLVGKNLKINIGDTEKIYTGLVKPVIRYYKCLKCGKIHKVGEEVKKVEDLVCECGGKKFKMIKREKLKNELEHHHHHH”, the “soluble on expression in E. coli” value is “soluble”.
Next, “MSLAAPTLTGGKLTVGIQGTHAELGVLLYPGVQMAAVHGLSDLFEVANRIAGEQPQAQLPRLRVSHWQASGELPPVRVHDSLAEAPGALLAVLIPPSLAGFSSHQSSAALMDWLRQQHAAGATLGGVCVGSILLAESGLLDGRSATTHWTSAQAFAERYPQVRLEADKPIVDDGDLITSAGLMAWAELGLRLVNRLLGPSIASATARFLVMEHSASASQCGSNFAPILSHGDGAILKLQHWLQANGAVDVSLPVMAQQAGLEPRTLLRRFRAATGLKPTQYCQHLRVGKARELLEFTNGSIDHIAWTVGYQDPATFRSLFRKITGLAPSEYRNRFGATSTAASREGHHHHHH”: “soluble”; “MGGMHAHVILAAGQGTRMRSRLPKVLHPLLGKPMLLYALEAALALKPERLVVVVGHGGEKVVEALEGYPVEVAWQKEQLGTAHALLQAEGLLRDFPGPFLVTQGDTPLLSPRTLEALLRRVREGAGMALLTAELPDPTGYGRILREGEEVLGNVEEKDAPPEVRAIREVNAGAYAFDGFLFQALKEVRNENAAREYYLPDLIAIYRAHGRRVLAVRGVAEEALGVNTREELARVEGVLLRRLRAEWMGKGVRMILPETIYLEPSVELAPDVTLWPGAVLKGKTRIGEGCEVGPYAVLEDTVLEPGAKVLAHTVAQGAHLHPGASAGPFARLRPGAVLMEEVHVGNFVEVKNSLLHKGVKAGHLAYLGDAEVGEGTNIGAGVITANYDGKRKHKTEIGKKAFIGSNSVLVAPVRVGDRALVGAGSVITQDVPEGALAVARERQKNLEGYALRKLGEG”: “soluble”.

For the origin of these results see the DeepSol protein solubility set.
